Results: patent US20230312698A1 (NANJING GENSCRIPT BIOTECH, published 2023)
Where two headings read alike, the source gives them in different places.

T1: human Ang2 protein (R&D Systems, 623-AN-01M/CF; 623-AN/CF) (human, UniProt O15123 19-496)
T1 chain: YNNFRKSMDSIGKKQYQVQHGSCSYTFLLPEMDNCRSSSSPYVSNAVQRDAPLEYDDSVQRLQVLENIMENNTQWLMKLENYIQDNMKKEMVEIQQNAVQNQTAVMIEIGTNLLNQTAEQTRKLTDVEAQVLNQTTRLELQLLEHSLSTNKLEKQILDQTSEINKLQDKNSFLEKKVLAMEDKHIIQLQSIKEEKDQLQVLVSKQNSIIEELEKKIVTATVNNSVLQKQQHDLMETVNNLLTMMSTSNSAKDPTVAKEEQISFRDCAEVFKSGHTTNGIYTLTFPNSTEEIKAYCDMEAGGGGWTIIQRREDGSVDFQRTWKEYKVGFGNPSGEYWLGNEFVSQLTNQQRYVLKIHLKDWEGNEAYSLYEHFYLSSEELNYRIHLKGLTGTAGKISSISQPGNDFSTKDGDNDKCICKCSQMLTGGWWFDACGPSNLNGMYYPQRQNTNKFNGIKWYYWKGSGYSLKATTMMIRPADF

T2: human Ang2 protein (R&D Systems, 623-AN-01M/CF; 623-AN/CF) (human, UniProt O15123 19-496)
T2 construct: Bought recombinant protein; also called Ang2 proteins; angiopoietin-2
T2 sequence (looked up): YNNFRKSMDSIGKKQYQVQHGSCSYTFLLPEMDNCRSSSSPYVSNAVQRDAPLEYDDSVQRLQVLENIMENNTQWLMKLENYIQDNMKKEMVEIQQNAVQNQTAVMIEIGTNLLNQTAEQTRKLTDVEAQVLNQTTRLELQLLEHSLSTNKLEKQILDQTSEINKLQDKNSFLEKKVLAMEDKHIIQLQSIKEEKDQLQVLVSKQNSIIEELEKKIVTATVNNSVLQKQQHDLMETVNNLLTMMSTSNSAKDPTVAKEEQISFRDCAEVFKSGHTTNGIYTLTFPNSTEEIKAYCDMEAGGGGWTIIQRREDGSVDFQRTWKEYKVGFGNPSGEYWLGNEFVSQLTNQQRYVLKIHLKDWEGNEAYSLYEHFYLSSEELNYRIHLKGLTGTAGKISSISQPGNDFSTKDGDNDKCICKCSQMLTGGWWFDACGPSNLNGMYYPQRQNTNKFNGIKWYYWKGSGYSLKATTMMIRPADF

T3: membrane-anchored human Ang2 protein expressed on CHO-K1 cells (human, UniProt O15123 19-496)
T3 chain: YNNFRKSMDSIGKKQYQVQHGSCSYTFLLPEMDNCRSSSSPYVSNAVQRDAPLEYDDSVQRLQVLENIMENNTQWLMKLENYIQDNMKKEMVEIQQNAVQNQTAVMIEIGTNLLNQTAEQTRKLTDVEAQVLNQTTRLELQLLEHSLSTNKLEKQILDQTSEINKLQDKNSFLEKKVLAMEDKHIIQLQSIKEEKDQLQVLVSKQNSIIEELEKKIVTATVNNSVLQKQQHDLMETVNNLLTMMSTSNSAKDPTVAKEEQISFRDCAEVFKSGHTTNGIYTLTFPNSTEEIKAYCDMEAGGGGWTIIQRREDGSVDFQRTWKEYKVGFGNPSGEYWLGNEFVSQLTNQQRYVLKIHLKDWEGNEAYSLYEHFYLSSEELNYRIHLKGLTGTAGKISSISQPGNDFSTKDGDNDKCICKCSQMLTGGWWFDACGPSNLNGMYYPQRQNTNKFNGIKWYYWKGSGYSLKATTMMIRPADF

T4: membrane-anchored cyno Ang2 protein expressed on CHO-K1 cells (cyno, UniProt A0A2K5VNX6 19-496)
T4 chain: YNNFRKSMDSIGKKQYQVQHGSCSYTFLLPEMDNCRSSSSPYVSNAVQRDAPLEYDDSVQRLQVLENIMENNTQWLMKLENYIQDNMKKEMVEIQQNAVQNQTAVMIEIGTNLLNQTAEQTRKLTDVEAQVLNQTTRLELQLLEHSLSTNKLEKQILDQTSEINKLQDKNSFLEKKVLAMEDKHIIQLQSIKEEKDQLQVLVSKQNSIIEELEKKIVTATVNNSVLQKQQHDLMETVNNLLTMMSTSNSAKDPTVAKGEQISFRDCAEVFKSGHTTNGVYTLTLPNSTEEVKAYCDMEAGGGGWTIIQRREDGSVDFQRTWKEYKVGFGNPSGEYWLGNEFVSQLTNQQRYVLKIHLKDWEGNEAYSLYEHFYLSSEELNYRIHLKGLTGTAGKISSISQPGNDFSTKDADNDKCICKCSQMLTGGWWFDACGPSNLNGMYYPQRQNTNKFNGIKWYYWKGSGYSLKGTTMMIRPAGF

T5: mouse Ang2 protein (R&D Systems, 7186-AN-025/CF) (mouse, UniProt O35608 19-496, limits assumed)
T5 construct: Bought recombinant protein
T5 sequence (looked up): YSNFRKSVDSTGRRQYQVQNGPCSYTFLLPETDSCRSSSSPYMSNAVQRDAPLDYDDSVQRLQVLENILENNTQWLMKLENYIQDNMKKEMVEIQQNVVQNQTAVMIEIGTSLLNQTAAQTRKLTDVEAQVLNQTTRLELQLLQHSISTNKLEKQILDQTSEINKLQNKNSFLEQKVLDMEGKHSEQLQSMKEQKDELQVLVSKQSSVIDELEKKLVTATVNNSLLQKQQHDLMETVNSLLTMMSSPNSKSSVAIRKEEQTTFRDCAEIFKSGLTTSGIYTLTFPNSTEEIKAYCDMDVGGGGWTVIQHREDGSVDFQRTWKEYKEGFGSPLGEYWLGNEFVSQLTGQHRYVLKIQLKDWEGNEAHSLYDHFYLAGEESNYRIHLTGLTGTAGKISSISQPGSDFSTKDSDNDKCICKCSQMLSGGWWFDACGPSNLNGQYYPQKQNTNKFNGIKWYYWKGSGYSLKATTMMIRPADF


Experiments:
[1] = biological target: T1, human Ang2 protein (R&D Systems, …); assay: ELISA
[2] = biological target: T2, human Ang2 protein (R&D Systems, …); assay: indirect ELISA, human Ang2 coated at 0.5 µg/ml, anti-human IgG-HRP
Experimental: The humanized antibodies were tested for their binding activities to human Ang2 in an indirect ELISA. Briefly, 100 μl of 0.5 μg/ml human Ang2 proteins (R&D Systems; 623-AN-01M/CF) were pre-coated onto ELISA plates overnight at 4° C. On the next day, the plates were incubated with 100 μl 3× serially diluted primary antibodies, with initial concentration at 1 μg/ml. The plates were added with HRP-conjugated goat anti-human IgG antibody (Jackson, cat #109-605-098) and then TMB for chromogenic reaction. The antibody-antigen binding curves were generated with optical density readings at 450 nm. Antibody ABA and IgG1 were used as a positive and negative control respectively. Raw data was plotted using GraphPad Prism v6.02 software with four parameters, and best-fit values program was used to analyze the EC₅₀.

[3] = biological target: T3, membrane-anchored human Ang2 protein …; assay: FACS
[4] = biological target: T4, membrane-anchored cyno Ang2 protein …; assay: FACS
[5] = biological target: T1, human Ang2 protein (R&D Systems, …); assay: ELISA
[6] = biological target: T2, human Ang2 protein (R&D Systems, …); assay: indirect ELISA, human Ang2 coated at 0.5 µg/ml
Experimental: (§1) The antibodies were tested for their binding activities to Ang2 in an indirect ELISA. Briefly, 100 μl of 0.5 μg/ml human or mouse Ang2 proteins (R&D Systems; 623-AN-01M/CF for human Ang2, 7186-AN-025/CF for mouse Ang2) were pre-coated onto ELISA plates overnight at 4° C. On the next day, the plates were incubated with […] diluted primary antibodies, with initial concentration at 1 μg/ml. The plates were added with HRP-conjugated goat anti-mouse IgG (H+L) and then TMB for chromogenic reaction. The antibody-antigen binding curves were generated with optical density readings at 450 nm. Raw data was plotted using GraphPad Prism v6.02 software with four parameters, and best-fit values program was used to analyze the EC₅₀.

[7] = biological target: T5, mouse Ang2 protein (R&D Systems, …); assay: indirect ELISA, mouse Ang2 coated at 0.5 µg/ml
Experimental: as §1

| EC50 [1] [ng/mL] | binding result [2] | EC50 [3] [nM] | EC50 [4] [nM] | EC50 [5] [ng/mL] | binding result [6] | Binder | binding result [7] |
| --- | --- | --- | --- | --- | --- | --- | --- |
| 4.35 | – | – | – | – | – | 53E8B2-VH3-VL2 (antibody, V domains shown) VH: EVQLVESGGGLVQPGGSLRLSCAASGFTFSDYAMAWVRQAPGKGLEWVATIIYDGSSTYYRDSVKGRFTISRDNAKNSLYLQMNSLRAEDTAVYYCARHGRVFGFGYFDYWGQGTLVTVSS VL: DIQMTQSPSSVSASVGDRVTITCQASQDIGDWVAWYQQKPGRAPKLLIYGADRLADGVPSRFSGSGSGTDFTLTISSLQPEDFATYYCLQDYSPPFTFGQGTKLEIK | – |
| 7.29 | – | – | – | – | – | 85E10B9-VH1-VL6 (antibody, V domains shown) VH: QVQLVQSGAEVKKPGASVKVSCKASGYTFTNHYLHWVRQAPGQGLEWMGWIGPTNGDTSYAQKFKDRVTMTRDTSISTAYMELSRLRSDDTAVYYCAREGYFTNYFDYWGQGTLVTVSS VL: DIQMTQSPSSLSASVGDRVTITCKASQNVIKYLAWYQQKPGKAPKRLIYNASSLQTGVPSRFSGSGSGTEFTLTISSLQPDDFATYYCLQYNSWWTFGQGTKVEIK | – |
| 0.718 | binds | – | – | – | – | 85E10B9-VH3-VL1 (antibody, V domains shown, Humanized antibody expressed in CHO-3E7; also called humanized 85E10B9 lead) VH: QVQLVQSGAEVKKPGASVKVSCKASGYTFTNHYLHWVRQAPGQRLEWMGWIGPTNGDTSYAQKFKDRVTITRDTSASTAYMELSSLRSEDTAVYYCAREGYFTNYFDYWGQGTLVTVSS VL: DIQMTQSPSSLSASVGDRVTITCKASQNVIKYLAWYQQKPGKVPKLLIYNASSLQTGVPSRFSGSGSGTDFTLTISSLQPEDVATYYCLQYNSWWTFGGGTKVEIK | – |
| 4.52 | – | – | – | – | – | 85E10B9-VH3-VL2 (antibody, V domains shown) VH: QVQLVQSGAEVKKPGASVKVSCKASGYTFTNHYLHWVRQAPGQRLEWMGWIGPTNGDTSYAQKFKDRVTITRDTSASTAYMELSSLRSEDTAVYYCAREGYFTNYFDYWGQGTLVTVSS VL: DIQLTQSPSFLSASVGDRVTITCKASQNVIKYLAWYQQKPGKAPKLLIYNASSLQTGVPSRFSGSGSGTEFTLTISSLQPEDFATYYCLQYNSWWTFGGGTKVEIK | – |
| – | – | 6.33 | 18.8 | 42.4 | binds | 46F3H4 (antibody, V domains shown, Hybridoma antibody purified with Protein-A beads) VH: EVQLHQSGPELVKPGASVKMSCKASGYTFTNYYIHWVKQSHGKSIEWIGYIYPNNGDTTYNQKFKGKATLTVDKSSSIAYMELRSLTSEDSAVYYCAVVSYSNYVAGAMDYWGQGTSVTVSS VL: SIVMTQTPKFLLVSAGDRVTITCKASQSVSNDVAWYQQKPGQSPKLLIYFASNRYTGVPDRFTGSGYGTDFTFTISTVQAEDLAVYFCQQDYSSPYTFGGGTKLEIK | no binding (tested: initial concentration at 1 µg/ml) |
| – | – | 0.369 | 0.662 | 7.47 | binds | 5A7B9 (antibody, V domains shown, Hybridoma antibody purified with Protein-A beads) VH: QIQLVQSGPELKKPGETVKISCKASGYTFTNYGVNWVKQAPGKGLKWMGWINSYSGVPTYADDFKGRFAFSLETSASTAYLQINNLKNEDTATYFCARGENNYYGGSYDWGQGTTLTVSS VL: SIVMTQTPKFLLVSAGDRVTITCKASQSVSNDVAWYQQKPGQSPKLLIYYASNRYTGVPDRFTGSGYGTDFTFTISTVQAEDLAVYFCQQDYSSPLTFGAGTKLELK | no binding (tested: initial concentration at 1 µg/ml) |
| – | – | 1.69 | 2.37 | 7.17 | binds | 4D8F2 (antibody, V domains shown, Hybridoma antibody purified with Protein-A beads) VH: DVQLQESGPGLVKPSQSLSLTCTVTGYSITSDYAWNWIRQFPGNKLEWMGYISYSGSTSYNPSLKSRISITRDTSKNQFFLQLNSVTTEDTATYYCARGVRGDMDYWGQGTSVTVSS VL: SIVMTQTPKFLLVSAGDRVTITCKASQSVSNDVAWYQQKPGQSPKLLIYYASNRYTGVPDRFTGSGYGTDFTFTISTVQAEDLAVYFCQQDYSSPFTFGSGTKLEIK | no binding (tested: initial concentration at 1 µg/ml) |
| – | – | 0.203 | 0.342 | 6.34 | binds | 46H3H3 (antibody, V domains shown, Hybridoma antibody purified with Protein-A beads) VH: EVKLVESGGGLVQPGGSRKLSCAASGFTFSDYGMVWVRQAPGKGLEWVAYIGSGRSTIYYADTVKGRFTISRDNPKNTLFLQMSSLRSEDTAMYYCAREDNGYSYAMDYWGQGTSVTVSS VL: DIQMTQSPASQSASLGESVTITCLASQTIGTWLAWYQQKPGKSPQLLIYAATSLADGVPSRFSGSGSGTKFSFKISSLQAEDFVSYYCQQLYSTPLTFGAGTKLELK | no binding (tested: initial concentration at 1 µg/ml) |
| – | – | 7.84 | 3.88 | 9.87 | binds | 42A2A6 (antibody, V domains shown, Hybridoma antibody purified with Protein-A beads) VH: DVQLQESGPGLVKPSQSLSLTCTVTGYSITSDYAWNWIRQFPGNKLEWMGFINYSGTTSYNPSLKSRISLTRDTSKNQFFLQLNSVTTEDTATYYCARWGYSDFLYYFDYWGQGTTLTVSS VL: QIVLSQSPAILSASPGEKVTMTCRASSSVSYIHWYQQKPGYSPKPWIYATSNLASGVPARFSGGGSGTSYSLTISRVEAEDAATYYCQQWSNNPWTFGGGTKLEIK | no binding (tested: initial concentration at 1 µg/ml) |
